In patent publication US20170247447A1 (Hoffmann-La Roche, published 2017):
Where two headings read alike, the source gives them in different places.

Legend:
[1] = molecular target: T1, human IL-1beta (human, UniProt P01584 117-269); assay: cell-based or functional assay
[2] = molecular target: T1, human IL-1beta; assay: cell-based or functional assay; remark: listed apart in the source
[3] = molecular target: T1, human IL-1beta; assay: SPR (BIAcore T200), antibody captured via anti-human Fc, human IL-1beta in solution
Experimental: All experiments were performed at 25° C. using HBS-P (10 mM His, 140 mM NaCl, 0.05% Tween 20 pH 7.4) as running and dilution buffer. Anti-human Fc antibodies were immobilized on a Series S CM5 Sensor Chip (GE Healthcare) using standard amine coupling chemistry. Bispecific antibodies were captured on the surface leading to a capturing response of 100-200 RU. […] The dissociation phase was monitored for 600 sec by washing with running buffer. The surface was regenerated by injecting 3 M MgCl2 (for anti-human Fc antibody) or 10 mM Glycine pH 1.5 (for anti-mouse Fc antibody) for 60 sec at a flow rate of 5 μl/min. Bulk refractive index differences were corrected by subtracting the response obtained from a mock surface. Blank injections were subtracted (double referencing). The derived curves were fitted to a 1:1 Langmuir binding model using the BIAevaluation software.

[4] = molecular target: T1, human IL-1beta; assay: cell-based or functional assay; remark: listed apart in the source
[5] = molecular target: T1, human IL-1beta; assay: cell-based or functional assay; remark: listed apart in the source
[6] = molecular target: T1, human IL-1beta; assay: cell-based or functional assay; remark: listed apart in the source
[7] = molecular target: T2, cynomolgus IL-1beta (cynomolgus, UniProt P79182 117-268); assay: SPR (BIAcore), antibody captured via anti-Fc, IL-1beta in solution
T2 sequence (P79182 117-268 limits assumed): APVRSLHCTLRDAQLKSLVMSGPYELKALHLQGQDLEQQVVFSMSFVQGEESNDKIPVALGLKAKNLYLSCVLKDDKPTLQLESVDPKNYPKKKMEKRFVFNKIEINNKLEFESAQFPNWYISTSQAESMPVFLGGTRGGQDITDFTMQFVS

[8] = molecular target: T1, human IL-1beta; assay: as above
[9] = molecular target: T1, human IL-1beta; assay: immunoprecipitation radioimmunoassay with 125I-IL-1beta
Experimental: Determination of antibody affinity—Monoclonal antibody affinity was determined from data obtained using an immunoprecipitation radioimmunoassay. Briefly, 5000 cpm/tube of ¹²⁵IIL-1beta was incubated with dilutions of purified monoclonal antibody in 0.3 ml of 1% non-fat dry milk/0.5% Thimerosal/PBS overnight at 4° C. Antigen-antibody complexes were precipitated by the addition of 100 μL/tube each of 10% normal mouse serum/PBS and 4 mg/ml goat anti mouse IgG sera in PBS. After 4 hours at 4° C., the 1/ml tube of ice-cold 2% polyethylene glycol-6000 was added and the tubes centrifuged at 3000*g for 20 min. at 4° C. The supernatants were aspirated and the pellets counted in a gamma counter.
Affinity constants were calculated using data obtained from an immunoprecipitation radioimmunoassay (RIA) of ¹²⁵IIL-1beta binding of different antibody concentrations as described above.

[10] = molecular target: T2, cynomolgus IL-1beta; assay: SPR (BIAcore), antibody captured via anti-Fc, IL-1beta in solution; remark: listed apart in the source
Experimental: (§1) All experiments were performed at 25° C. using HBS-P (10 mM His, 140 mM NaCl, 0.05% Tween 20 pH 7.4) as running and dilution buffer. Anti-human or anti-mouse Fc antibodies were immobilized on a Series S CMS Sensor Chip (GE Healthcare) using standard amine coupling chemistry. […] The dissociation phase was monitored for 600 sec by washing with running buffer. […] The surface was regenerated by injecting 3 M MgCl2 (for anti-human Fc antibody) or 10 mM Glycine pH 1.5 (for anti-mouse Fc antibody) for 60 sec at a flow rate of 5 μl/min. Bulk refractive index differences were corrected by subtracting the response obtained from a mock surface. Blank injections were subtracted (double referencing). The derived curves were fitted to a 1:1 Langmuir binding model using the BIAevaluation software.

[11] = molecular target: T1, human IL-1beta; assay: as above; remark: listed apart in the source
Experimental: as §1

[12] = molecular target: T1, human IL-1beta; assay: SPR competition, 10 nM human IL-1beta pre-incubated with antibody, competitor immobilized human IL-1RI
Experimental: All experiments were performed at 25° C. using HBS-P (10 mM His, 140 mM NaCl, 0.05% Tween 20 pH 7.4) as running and dilution buffer. Human IL-1RI was immobilized on a Series S CM5 Sensor Chip (GE Healthcare) using standard amine coupling chemistry. […] The surface was regenerated by injecting 10 mM NaOH for 60 sec at a flow rate of 5 μl/min. Bulk refractive index differences were corrected by subtracting the response obtained from a mock surface.

[13] = molecular target: T1, human IL-1beta; assay: cell-based or functional assay; remark: listed apart in the source
[14] = molecular target: T1, human IL-1beta; assay: cell-based or functional assay; remark: listed apart in the source
[15] = molecular target: T1, human IL-1beta; assay: cell-based or functional assay; remark: listed apart in the source

IC50, inhibition of ICAM-1 expression, A549 cells [1] [nM]	EC50, reduction of IL-6 expression, A549 cells [2] [nM]	t½ [3] [s]	IC50, inhibition of ICAM-1 expression, HUVEC cells [4] [nM]	EC50, reduction of IL-6 expression, A549 cells [5] [ng/mL]	Binder	also measured
0.23	0.11	101	0.3	–	huH34-2 (antibody, V domains shown, Humanized, captured by anti-human Fc in SPR; also called huH34-2 bivalent) VH: QVQLVQSGAEVKKPGASVKVSCKASGYTFTGYYMHWVRQAPGQGLEWIGYISSYNAFTTYNQKFRGRATFTVDTSISTAYMELSRLRSDDTAVYYCVRSDYYGTSLYWGQGTLVTVSS VL: EIVLTQSPATLSLSPGERATLSCRASSSVSYMHWSQQKPGQAPRLLIYSTSNLASGIPARFSGSGSGTDFTLTISSLEPEDFAVYYCHQWSNYYTFGQGTKLEIK	–
–	–	38	–	38.7	antibody 0032 (bispecific anti-VEGF/IL-1beta CrossMab antibody) (bispecific antibody, V domains shown, also called anti-IL-1beta/VEGF antibody) VH 1: EVQLVESGGGLVQPGGSLRLSCAASGYDFTHYGMNWVRQAPGKGLEWVGWINTYTGEPTYAADFKRRFTFSLDTSKSTAYLQMNSLRAEDTAVYYCAKYPYYYGTSHWYFDVWGQGTLVTVSS VL 1: DIQLTQSPSSLSASVGDRVTITCSASQDISNYLNWYQQKPGKAPKVLIYFTSSLHSGVPSRFSGSGSGTDFTLTISSLQPEDFATYYCQQYSTVPWTFGQGTKVEIK VH 2: QVQLVQSGAEVKKPGASVKVSCKASGYTFTGYYMHWVRQAPGQGLEWIGYISSYNAFTTYNQKFRGRATFTVDTSISTAYMELSRLRSDDTAVYYCVRSDYYGTSLYWGQGTLVTVSS VL 2: EIVLTQSPATLSLSPGERATLSCRASSSVSYMHWSQQKPGQAPRLLIYSTSNLASGIPARFSGSGSGTDFTLTISSLEPEDFAVYYCHQWSNYYTFGQGTKLEIK	–
–	–	38	–	17	antibody 0031 (bispecific anti-ANG2/IL-1beta CrossMab antibody) (bispecific antibody, V domains shown, also called anti-IL-1beta/ANG2 antibody) VH 1: QVQLVQSGAEVKKPGASVKVSCKASGYTFTGYYMHWVRQAPGQGLEWIGYISSYNAFTTYNQKFRGRATFTVDTSISTAYMELSRLRSDDTAVYYCVRSDYYGTSLYWGQGTLVTVSS VL 1: EIVLTQSPATLSLSPGERATLSCRASSSVSYMHWSQQKPGQAPRLLIYSTSNLASGIPARFSGSGSGTDFTLTISSLEPEDFAVYYCHQWSNYYTFGQGTKLEIK VH 2: not shown VL 2: SYVLTQPPSVSVAPGQTARITCGGNNIGSKSVHWYQQKPGQAPVLVVYDTSDRPSGIPERFSGSNSGNTATLTISRVEAGDEADYYCQVWDSSSDHWVFGGGTKLTVLSS	IC50, inhibition of ICAM-1 expression, A549 cells [6]: 104 ng/mL
2.23	1.09	–	–	–	huH34-3 (antibody, V domains shown) VH: QVQLVQSGAEVKKPGASVKVSCKASGYTFTGYYMHWVRQAPGQGLEWIGYISSYSAFTTYNQKFRGRATFTVDTSISTAYMELSRLRSDDTAVYYCVRSDYYGTSLYWGQGTLVTVSS VL: EIVLTQSPATLSLSPGERATLSCRASSSVSYMHWSQQKPGQAPRLLIYSTSNLASGIPARFSGSGSGTDFTLTISSLEPEDFAVYYCHQWSNYYTFGQGTKLEIK	–
> 7	5.52	–	–	–	huH34-1 (antibody, V domains shown) VH: QVQLVQSGAEVKKPGASVKVSCKASGYTFTGYYMHWVRQAPGQGLEWMGYISSYSGFTTYAQKFQGRVTMTRDTSISTAYMELSRLRSDDTAVYYCARSDYYGTSLYWGQGTLVTVSS VL: EIVLTQSPATLSLSPGERATLSCRASSSVSYMHWSQQKPGQAPRLLIYSTSNLASGIPARFSGSGSGTDFTLTISSLEPEDFAVYYCHQWSNYYTFGQGTKLEIK	–
0.31	0.12	–	9.02	86.4	Canakinumab (antibody, V domains shown) VH: QVQLVESGGGVVQPGRSLRLSCAASGFTFSVYGMNWVRQAPGKGLEWVAIIWYDGDNQYYADSVKGRFTISRDNSKNTLYLQMNGLRAEDTAVYYCARDLRTGPFDYWGQGTLVTVSS VL: EIVLTQSPDFQSVTPKEKVTITCRASQSIGSSLHWYQQKPDQSPKLLIKYASQSFSGVPSRFSGSGSGTDFTLTINSLEAEDAAAYYCHQSSSLPFTFGPGTKVDIKR	–
0.18	–	–	0.24	–	murine anti-IL-1beta antibody ILB1-H34 (antibody, mouse IgG1, V domains shown, also called HLB1-H34) VH: EVQLQQSGPELVKTGASVKISCKASGYSFTGYYMHWVKQSHGKSLEWIGYISCYNAFTTYNQRFRGKATFTVDTSSSTAYMQFNSLTSEDSAVYYCVRSDYYGTSLYWGQGTTLTVSS VL: QIVLTQSPAIMSASLGEEITLTCSASSSVSYMHWSQQKSGSSPKLLIYSTSNLASGVPSRFSGSGSGTFYSLTISSVEAEDAADYYCHQWSNYYTFGGGTKLEIK	Kd [7]: 0.05 nM; koff [7]: 9.8e-05 s⁻¹; kon [7]: 1.99e+06 M⁻¹ s⁻¹; Kd [8]: 0.07 nM; koff [8]: 0.000127 s⁻¹; kon [8]: 1.85e+06 M⁻¹ s⁻¹; Ka [9]: 6.4e+10 M⁻¹; Kd [10]: 0.05 nM; koff [10]: 9.8e-05 s⁻¹; kon [10]: 1.99e+06 M⁻¹ s⁻¹; Kd [11]: 0.07 nM; koff [11]: 0.000127 s⁻¹; kon [11]: 1.85e+06 M⁻¹ s⁻¹; IC50 [12]: 3.5 nM
–	–	–	–	–	mumAb (novel murine anti-human IL-1beta antibody) (antibody, V domains shown) VH: EVQLQQSGPELEKPGASVKISCKASGYSFTDYNMNWVRQSNGKSLEWIGNIDPYYGGTTYNQKFKDKATLTVDKSSSTAYMQLKSLTSEDSAVYYCAREGSPTRYYVMDYWGQGTSVTVSS VL: DIQMTQSPASLSASVGETVTITCRASENIYSNLAWYQQKQGKSPQLLVYAATNLADGVPSRFSGSGSGTQFSLKINSLQPEDFGSYYCHHFYNTPWTFGGGTKLEIK	EC50, reduction of IL-6 expression, A549 cells [13]: 1.09 nM; IC50, inhibition of ICAM-1 expression, A549 cells [14]: 0.7 nM; IC50, inhibition of ICAM-1 expression, HUVEC cells [15]: 16.5 nM
